Test [1] deals with RSV A2 pre-F (RSV A2). Briefly: BLI. A general note: In BLI a coated tip is dipped into the sample, and binding shifts an interference pattern.
In test [2] the target is RSV A2 pre-F (RSV A2). The experiment in a line: ELISA. (ELISA stands for enzyme-linked immunosorbent assay.)
For test [3], the target named is RSV A2 pre-F (RSV A2). The experiment in a line: ELISA. The source holds these as a separate data set.
The target of test [4] is RSV A2 pre-F (RSV A2). Briefly: BLI. The source holds these as a separate data set.

Among the data in patent US20260327294 (published 2026) are Kd and EC50 values, retold here.

Changes are numbered by the printed parent chain. Read-outs that look alike come from different tables or passages of the source. Where only a bound is given, the exact number is not on record here.

B1: F6-227 (antibody, V domains shown)
VH: QVQLQQSGPGLVKPSETLSLACSVSGGSMSDFYWSWIRQSPGTGLEWIGYVHHSGKVNYNPSLKARVTMSLDTSKYLLSLNLASMTAADSAVYYCAATSAFVDSSSYSPPYFDFWGQGTLITVSS
VL: DIQLTQSPSSLSASVGDRVTITCQASHDITNYLNWYQQTPGKAPRLLIYVATNLETGVPSRFSGSGSGTHFTLTISSLQPEDSATYYCQQYDNLPITFGGGTRVEIR
Usually Kd stands for the free concentration of one partner at which half of the binding sites on the other are occupied at equilibrium, for simple one-to-one binding. High values mean a looser complex, low ones a tighter complex. In general, EC50 refers to the concentration that produces a half-maximal response. Turning to B1, in the test with RSV A2 pre-F [1], the dissociation constant Kd came out at 0.169 nM. Also, the 50% effective concentration (EC50) with RSV A2 pre-F [2] worked out at 0.0226 µg/mL.

B2: F6-172 (antibody, V domains shown)
VH: EEQLVESGGGLVQPGGSLKLSCAASGFILSDSTVHWVRQASGRGLEWVGRIANGYATSYAASVKGRFTISTDDSGNTAYLEMNSLKTEDTAVYYCTSRSVVVTDVGAGRDDYWGQGTLVTVSS
VL: DIVMTQSPLSLPVTPGEPASISCRSSQSLLHRNGYNYLDWYLQKPGQSPQLLIWLGSNRASGVPDRFSGSGSGTDFTLTISRVEAEDVGVYYCMQDLQTPPTFGGGTKVEIM
In turn, B2 came in with a dissociation constant Kd in the test with RSV A2 pre-F [1] of less than 0.001 nM. Further, in the test with RSV A2 pre-F [2], the EC50 worked out at 0.0183 µg/mL.

B3: F6-124 (antibody, V domains shown)
VH: QVQLVQSGTEVKKPGASVKISCKASGYTFTGNAINWVRQAPGQGLEWLGWISVNNGNTKYVQKFQGRVTMTTDTSTSTAYMELRSLGSDDTAVYYCAREVVNYGSGSLNFDSWGQGTLVTVSS
VL: SYELTQPPSVSVSPGQTVSISCSGDKLGNDYVSWYQQKPGQSPVLVIYEDSKRPSGIPERFSGSNSGNTATLTISGTQAMDESDYYCQAWDGSTVIFGGGTKLTVL
In the test with RSV A2 pre-F [1], B3 came in with an equilibrium dissociation constant (Kd) of less than 0.001 nM. The same molecule displayed a concentration giving a half-maximal response (EC50) in the test with RSV A2 pre-F [2] of 0.0147 µg/mL.

B4: F6-133 (antibody, V domains shown)
VH: EVQVVESGGGLVQPGGSLRLSCAASSFSVTGSYMTWVRQAPGKGLESVSLIYSTGSTYYADSVKGRFVISRDDSKNILFLQMNNLRVEDTGVYFCARLGPAGGSWSWEFYGLDVWGQGTTVTVFS
VL: CVQMTQSPSFLSASVGDRVTISCRASQGTTSYLAWYQQKPGKAPKLLIYGVSTLQTGVPSRFSGSGSGTDFTLTISNLQPEDFATYYCQQVNIFPYTFGPGTKVEIK
B4 came in with a Kd with RSV A2 pre-F [1] of 0.0669 nM. Further, a half-maximal effect with RSV A2 pre-F [2] (EC50) was put at 0.0494 µg/mL.

B5: F6-70 (antibody, V domains shown)
VH: QVQLVESGGGVVQPGRSLRLSCAASGFTFKNFAMHWVRQAPGKGLEWVAAVSYDGTSKYQADSVKGRFTISRDNSKNTLYLQMNSLRAEDTAVYYCARVESSGSGHYSYLGYFYCMDVWGKGTTVTVSS
VL: QSALTQPASVSASPGQSITISCTGTRNDVGGYEYVSWYQQHPDKAPKLMIFDVSNRPSGVSNRFSGSKSGNTASLTISGLQAEDEADYYCSSYTINNTLVFGGGTKVTVL
In the test with RSV A2 pre-F [1], B5 had a dissociation constant (Kd) of 2.11 nM. Besides, the EC50 with RSV A2 pre-F [2] came to 0.0585 µg/mL.

B6: F6-27 (antibody, V domains shown)
VH: QEQLMESGGDVVRPGTSLTLSCKASGFAFRSHALHWVRQAPGKGLEWVSVISYDGGHTNSADSLEGRFTVSRDNSKNILYLQMNSLRTEDTAVYFCARSEGSYRSWPGYFYYMDVWGNGTTVTVSS
VL: QSALTQPASVSGSPGQSITISCIGTSSDVGGYYYVSWYQQHPGRAPKLIIFDVTDRPSGVSSRFSGSQSGNTASLTISGLQPEDEADYYCNSYSSSTIPYVFGSGTKVTVL
As to B6, in the test with RSV A2 pre-F [3], the midpoint of the response, the EC50, lay at 0.00987 µg/mL. This molecule also gave a dissociation constant Kd in the test with RSV A2 pre-F [4] of 0.671 nM.

B7: F6-215 (antibody, V domains shown)
VH: QEQSVQSGPEVKKPGASVKVSCRASEFTFSTDFIHWVRQAPGQGLEWMGRITPSDGTTTYAPKFQGRVAVTRDPSTKNVYIQLTRLKSEDTAVYYCVAYDRATTSAGAGATDIWGQGTLVTVSS
VL: DIVMTQSPLSLPVTPGEPASISCRSSQSLLHGDGYNYLDWYLQRPGRSPQLLIYLGSHRASGVPDRFSGSGSGTDFTLRISRVEAEDVGIYYCMQGLQTPFTFGPGTKVDIK
Regarding B7, in the test with RSV A2 pre-F [1], the affinity, expressed as Kd, was 0.815 nM. The EC50 with RSV A2 pre-F [2] was 0.0289 µg/mL.

B8: F6-213 (antibody, V domains shown)
VH: QEQLVQSGAEVKRPGTSVKVSCKASGYAFTDYSIHWVRQAPGVGLEWMGKIYPGDGHALYAQNFQGRVTLTRDTSTASVYMELRSLRSQDTAVYYCVAYERATTLAGAGASDIWGQGTMVTVSS
VL: B7 VL with H31Q, G32S, L38M, R44K, E84K, G96S, T99S
B8: binding in the test with RSV A2 pre-F [1] was put at a Kd of 1.29 nM. A half-maximal effect with RSV A2 pre-F [2] (EC50) was put at 0.0298 µg/mL.

B9: F6-210 (antibody, V domains shown)
VH: QERLAQSGTEVKKPGASVKVSCRALGYTFSDYSIHWVRQAPRQGLEWMGKINTSGGTTTYAQKFQARVTLTSDTSTSTASMELSSLKIEDTAVYYCVAYERATTLAGAGASDIWGQGTLVTVSS
VL: DIVMTQSPLSLPVTPGEPASISCRSSQSLLHSDGYNYLDWYLQKPGQSPHLLIYLGSNRASGVPDRFSGSGSGTDFTLKITRVEPEDVGVYYCMQSLQTPFTFGPGTKVDVK
B9 registered a dissociation constant Kd with RSV A2 pre-F [1] of 0.106 nM. In the test with RSV A2 pre-F [2], this molecule came in with a half-maximal effective concentration (EC50) of 0.0281 µg/mL.

B10: F6-132 (antibody, V domains shown)
VH: QEQSVQSGAEVKKPGASVKVSCRASEFTFSTDFIHWVRQAPGQGLEWMGRITPSDGTTTYAQKFQGRVTMTRDPSTNTVYIELRRLKSEDTAVYYCVAYDRVTTSAGTGASDIWGQGTMVTVSS
VL: B7 VL with R44K
B10: the Kd with RSV A2 pre-F [1] was less than 0.001 nM. Also, in the test with RSV A2 pre-F [2], the midpoint of the response, the EC50, lay at 0.0167 µg/mL.

B11: F6-115 (antibody, V domains shown)
VH: QLQLHQRGAGLLKPSETLSLTCDVYGGSVSDDEWTWIRQSPGKGLEWIGQIDRTGSSNYNPSLRSRVTISPDTSNNQFSMSLTSVTAADTALYFCARGGLVVTDVGRGWDAFDVWGQGTMVTVSS
VL: DIQMTQSPSSVSASVGDRITITCRASQHINNWLAWYQQKPGEAPKLLIYAASTLQRGVPSRFSGSGSGTRFTLTITSLQPEDFASYFCQQGDSFPLTFGGGTKVEIK
Turning to B11, the dissociation constant (Kd) with RSV A2 pre-F [1] is less than 0.001 nM. For the same molecule, in the test with RSV A2 pre-F [2], a half-maximal response (EC50) required 0.0117 µg/mL.

B12: F6-61 (antibody, V domains shown)
VH: QVTLRQSGPALVKPTQTLTLTCTFSGFSLSTRGMCVNWIRQPPGKALEWLARIDWDDDKYYTTSLKTRLTISKDTAKNHVVLSMTNMDPVDTATYYCARIRCYDYVWGDDEVFDIWGQGTMVSVSS
VL: QSVLTQPPSASGTPGQSVTISCSGSTSNIGSNNVNWYQQLPGAAPKLVIHTNDQRPSRVPDRFSGSTSGTSASLAISGLQSEDEADYYCAAWDDSLNGLLFGGGTKLTVL
In the test with RSV A2 pre-F [1], B12 showed a Kd of 3.25 nM. This molecule also registered a 50% effective concentration (EC50) with RSV A2 pre-F [2] of 0.0613 µg/mL.

B13: F6-208 (antibody, V domains shown)
VH: QVQLEESGGGVVQPGTSLRLSCSSSGVTRNTYAVHWVRQVPGKGLEWLAATSYDGTSKYYPENGHGRVSISKEYSTNMVYLEIYNLRPEDTAVYFCAKGPQGIYSYIGYFYYMDVWGKGTTVTVSS
VL: QSALTQPASVSGSPGQSITLSCTGSRDDVGDYDYVSWYQHHPGKAPRLIIYDVTSRPSGVSPRFSGSKSGNTASLTISGLQADDEADYYCNSYTSSNSVVFGGGTKVTVL
Molecule B13 yielded an equilibrium dissociation constant (Kd) with RSV A2 pre-F [1] of 0.0533 nM. Moreover, a half-maximal response in the test with RSV A2 pre-F [2] (EC50) required 0.0198 µg/mL.

B14: F6-63 (antibody, V domains shown)
VH: QVQVVESGGGVVEPGGSLSLSCAASGFSFKMHAMHWVRQAPGKGLEWVAFIPYDGSSQYYADSVKGRFTIYRDNFKNTLYLQMNSLRVEDTSLYYCARGGEEGAWSWIGYNSYMDVWGRGTAVTVSS
VL: QSALTQPASVSGSPGQSITISCSGTSSDVGGYDYVCWYQKHPGESPRLIIYDVSRRPSGVSNRFSGSKSGNTASLTISGLQAEDEADYSCSSYTSSNTLIFGGGTKLTVL
For B14, the EC50 with RSV A2 pre-F [3] is 0.0161 µg/mL. For the same molecule, in the test with RSV A2 pre-F [4], the Kd came to 0.783 nM.

B15: F6-207 (antibody, V domains shown)
VH: QITLKESGPTLLKPTQTLTLTCTFSGFSLTTTGVAVGWVRQPPGKALEWLALIYWDDDKRYSPSLKSRVTITKDTSKNQVLLAMTDMDPVDTATYYCAHFDYGDPEVVALFEYSYYMDVWGKGITVTVSS
VL: QSVLTQPPSVSGTPGQRVTISCSGSSSNIGSNYVYWYQHLPGTAPKLLIYTNNRRPSGVPDRFSGSKSGTSASLAVSGLRSEDEADYFCAVWDDSVGGHWVFGGGTKLTVL
In turn, B15 returned an equilibrium dissociation constant (Kd) in the test with RSV A2 pre-F [1] of 0.291 nM. In the test with RSV A2 pre-F [2], this molecule had a concentration giving a half-maximal response (EC50) of 0.0354 µg/mL.

B16: F6-153 (antibody, V domains shown)
VH: QVQLQQWGAGLLRPSETLSLTCAVSGVSLSGDYLTWIRQTPGKGLEWIGEINHSGSTNYNPSLKSRVTISVETSKNHFSLKMRSVTAADSALYYCARGWEYCHGTTCYSKAFDIWGQGTLVTVSS
VL: DIQMTQSPSSLSASVGDRVTITCQASQDISNYLIWYQQKPGRAPKLLIFDASKLEKGVPPRFSGSGSGTYFTFTISSLQPEDFATYYCQQFHNLPVTFGGGTKLETK
B16: the Kd with RSV A2 pre-F [1] is less than 0.001 nM. This molecule registered a 50% effective concentration (EC50) in the test with RSV A2 pre-F [2] of 0.018 µg/mL.

B17: F6-38 (antibody, V domains shown)
VH: QVQLEESGGGVVQPGRSLTLSCAASGFTLKNYAIHWVRQAPGKGLEWVAVTAYDGFTSYYADSVKSRITISRDNSKNTAYLHLNNVRDDDAAFYYCARGGEGAFSWLGYLQYMDVWGRGTTVAVSS
VL: QSTLTQPASASGSPGQSITISCTGTSNDIGSYTYVSWYQHHPGKAPKLMIYDVNERPSGISHRFSGSKSGNTASLTISGLQPEDEADYYCNSYTINNTLKFGGGTRLTVL
Consider B17, for which the EC50 with RSV A2 pre-F [3] was determined as 0.00712 µg/mL. In addition, binding with RSV A2 pre-F [4] was characterised by a dissociation constant (Kd) of 1.38 nM.

B18: F6-88 (antibody, V domains shown)
VH: QVQLVQSGAEVKKPGASVRVSCGASGNSFTRHGFSWVRQAPGQGLEWIGLISAHKSNTIYAQKFQGRVTVTTDTSTSTAYMELRSLRSDDTAVYYCVRDVTVVTDVGSGYDFPMDVWGQGTTVTVSS
VL: QSVLTQSPSASGTPGQRVTISCSGSNSNIGGDYVHWYQQVPGTAPRLLIYNTNQRPSGVPDRFSGSKSGTSGSLAISGLRSEDEADYYCATWDDSLNGWVFGGGTKLTVL
On to B18, for which the EC50 in the test with RSV A2 pre-F [3] was determined as 0.0169 µg/mL. Besides, the Kd with RSV A2 pre-F [4] is 0.86 nM.

B19: F6-141 (antibody, V domains shown)
VH: QVQLAQSGAEVRRPGTSVKVSCRSSAYDFIDDSIHWVRQAPGQGLEWMGRIDPSGDTTTYAPQFQVRITLTRDTSTSTASMELNRLTSQDTAMYYCVAYERATTLAGVGASDVWGQGTWVTVSS
VL: DIVMTQSPLSLSVTPGEPASISCRSSQSLLYRDGYNYLDWYLQKPGQSPQLLLYFASYRASGVPDRFSGSGSGTDFTLTITRVEPEDVGIYYCMQSLQTPFTFGPGTKLDFK
On to B19, for which the Kd with RSV A2 pre-F [1] was less than 0.001 nM. In the test with RSV A2 pre-F [2], this molecule had a 50% effective concentration (EC50) of 0.0166 µg/mL.
